Source: patent US20250289897A1 (Eli Lilly, published 2025)
Where a chain is given by its changes, count along the chain named. Each block holds one binder with its values, some of them ahead of it.

Experiments:
[1] = biological target: T1, Human C1q (MS Biomedical) (human, UniProt P02745 23-245; P02746 28-253; P02747 29-245); test: C1q ELISA, plate coated with the antibody at 0.19-10 ug/mL, human C1q added at 10 ug/mL, sheep anti-human C1q-HRP detection, OD450
T1 construct: the three subunits are from general knowledge; also called complement component C1q; Clq
T1 sequence (P02745 23-245 limits assumed, chain 1 of 3): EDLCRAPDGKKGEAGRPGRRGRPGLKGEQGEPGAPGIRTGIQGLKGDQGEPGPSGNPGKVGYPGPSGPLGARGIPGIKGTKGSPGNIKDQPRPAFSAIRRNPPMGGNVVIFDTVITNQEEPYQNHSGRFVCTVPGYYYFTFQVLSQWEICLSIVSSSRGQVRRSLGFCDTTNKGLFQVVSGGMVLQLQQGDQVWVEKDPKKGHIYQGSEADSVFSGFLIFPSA
T1 sequence (P02746 28-253 limits assumed, chain 2 of 3): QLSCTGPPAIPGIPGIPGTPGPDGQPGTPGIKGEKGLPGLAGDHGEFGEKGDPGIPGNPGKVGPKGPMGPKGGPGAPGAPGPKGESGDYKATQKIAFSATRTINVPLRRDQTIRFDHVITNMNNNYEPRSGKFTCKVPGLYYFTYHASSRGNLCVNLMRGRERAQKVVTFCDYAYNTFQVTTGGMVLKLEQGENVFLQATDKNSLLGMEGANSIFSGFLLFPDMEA
T1 sequence (P02747 29-245 limits assumed, chain 3 of 3): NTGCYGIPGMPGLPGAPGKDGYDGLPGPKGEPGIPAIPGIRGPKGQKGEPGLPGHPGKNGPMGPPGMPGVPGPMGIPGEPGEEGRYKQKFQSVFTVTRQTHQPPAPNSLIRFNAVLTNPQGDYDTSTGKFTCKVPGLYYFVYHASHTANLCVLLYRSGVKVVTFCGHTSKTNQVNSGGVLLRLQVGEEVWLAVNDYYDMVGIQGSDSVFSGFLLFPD
Method: Testing was performed in duplicate wells. The plate was sealed and incubated overnight at 4° C. The coating reagent was removed from each well and 200 μL/well of casein blocking reagent (Thermo) was added. The plate was sealed and incubated for 2 hours at room temperature (RT). Each well was washed 3 times with wash buffer (1xTBE with 0.05% Tween 20). One hundred microliters per well of Human Clq (MS Biomedical) at 10 μg/mL diluted in casein blocking reagent was added and incubated for 3 hours at RT. The plate was then washed three times with wash buffer before 100 L/well of a 1:800 dilution of Sheep anti-human C1q-HRP (Abcam #ab46191) in casein blocker was added and incubated for 1 hour at RT. The plate was washed 6 times with wash buffer, and 100 μL/well of TMB Substrate (Pierce) was added to each well and incubated for 7 minutes. One hundred microliters of 1 N HCl was added to each well to stop the reaction.

[2] = biological target: neonatal Fc receptor (FcRn) on FcRn Affinity Column Gen2 (Roche, Cat #09430857001) (UniProt P55899 24-297; P61769 21-119, limits assumed); test: FcRn-HPLC (Roche FcRn Affinity Column Gen2), peak width at 50% peak height
Method: Stock antibody solutions were diluted to 1 mg/mL into 20 mM MES, 140 mM NaCl, pH5.5. […] 20 μμL antibody injections were made followed by 10 minute column wash with 20 mM MES, 140 mM NaCl, pH5.5. Antibodies were then eluted by pH gradient elution into 20 mM Tris, 140 mM NaCl, pH8.8 over 90 minutes. Chromatograms were blank-subtracted to remove baseline drift.

[3] = biological target: T2, cynomolgus monkey LEPR, full length, on HEK293-STAT3Luc-cmLepR2 cells (Macaca fascicularis); test: flow cytometry on live HEK293-STAT3Luc-cmLepR2 cells, AF647 anti-human IgG; average of 4 runs, SD 1.0
T2 construct: whole, on cells; also called cyno-LEPR; Macaca fascicularis LEPR
Method: Cells were incubated in blocking buffer for 10 mins at room temperature. After one rinse with PBS, cells were transferred to U-bottom 96-well plate at 200 μL and 0.2˜0.26^e6 cells/well. […] Cells were then incubated with 30 μL/well of antibodies diluted in flow buffer at 1000 nM as high dose followed by 9-point dose response including 5-fold dilutions not including 0 (totaling 9 concentrations for each Antibody) for 30 minutes at 4° C. in dark.

canine LEPR-ECD-His = biological target: T3, canine LEPR-ECD-His (canine); test: SPR (Biacore T200), antibody captured on Protein A/G chip, His-tagged LEPR-ECD as analyte; summary sentence of Table 3
T3 chain: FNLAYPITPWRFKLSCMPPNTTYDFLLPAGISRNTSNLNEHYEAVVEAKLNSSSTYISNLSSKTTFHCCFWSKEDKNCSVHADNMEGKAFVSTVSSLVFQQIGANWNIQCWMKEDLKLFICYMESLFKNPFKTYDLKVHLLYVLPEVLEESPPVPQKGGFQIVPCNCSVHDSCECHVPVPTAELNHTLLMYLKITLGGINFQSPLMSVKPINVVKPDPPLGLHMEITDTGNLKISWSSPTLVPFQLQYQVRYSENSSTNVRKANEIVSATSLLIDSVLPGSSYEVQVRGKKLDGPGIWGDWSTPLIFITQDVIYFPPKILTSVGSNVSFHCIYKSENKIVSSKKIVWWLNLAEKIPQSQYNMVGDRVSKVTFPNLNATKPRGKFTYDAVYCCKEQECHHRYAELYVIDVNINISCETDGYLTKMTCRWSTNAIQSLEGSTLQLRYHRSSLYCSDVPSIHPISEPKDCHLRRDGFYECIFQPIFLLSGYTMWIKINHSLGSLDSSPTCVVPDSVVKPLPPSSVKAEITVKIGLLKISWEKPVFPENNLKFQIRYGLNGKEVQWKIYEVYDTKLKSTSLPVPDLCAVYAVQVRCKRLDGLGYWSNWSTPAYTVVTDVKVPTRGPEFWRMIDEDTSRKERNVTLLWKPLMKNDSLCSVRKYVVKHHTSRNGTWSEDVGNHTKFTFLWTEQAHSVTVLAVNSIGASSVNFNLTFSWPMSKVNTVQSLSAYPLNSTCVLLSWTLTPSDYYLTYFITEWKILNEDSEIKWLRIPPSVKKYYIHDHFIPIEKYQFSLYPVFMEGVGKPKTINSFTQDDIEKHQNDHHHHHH
Method: (§1) His-tagged ECDs were expressed and purified for each species and used for affinity analysis. A Protein A/G chip (Xantec, Cat #PAGHC200M) was utilized in this experiment with HBS-EP +0.01% BSA as running buffer. Antibodies were diluted to 1 μg/mL in running buffer and captured to a single flow cell on the chip surface. Each species of LEPR-ECD was diluted to 1000 nM in running buffer followed by 2-fold serial dilution. Each ligand concentration was injected over all flow cells at 100 L/min for 150 seconds followed by a 600 second dissociation phase. Regeneration was performed by injecting 10 mM glycine pH1.5 for 30 seconds at 10 μL/min. Data were analyzed in Biacore T200 Evaluation Software 3.1 by flow-cell 1 reference subtraction along with 0 nM blank subtraction. Data were fit globally using a “1:1 Binding” binding model to determine the on-rate (kₐ) and off-rate (kd) for each ligand. The affinity (KD) was calculated from the binding kinetics according to the relationship KD=kₐ/kd. Data reported as mean±standard deviation of experimental replicates.

CYNO LEPR-ECD-His = biological target: T4, CYNO LEPR-ECD-His (cynomolgus monkey, UniProt Q9MYL0 22-837 (rhesus entry)); test: SPR (Biacore T200), antibody captured on Protein A/G chip, His-tagged LEPR-ECD as analyte, 1:1 fit; mean n=4, SD 2.6E-8
T4 construct: also called cynomolgus monkey LEPR
T4 sequence: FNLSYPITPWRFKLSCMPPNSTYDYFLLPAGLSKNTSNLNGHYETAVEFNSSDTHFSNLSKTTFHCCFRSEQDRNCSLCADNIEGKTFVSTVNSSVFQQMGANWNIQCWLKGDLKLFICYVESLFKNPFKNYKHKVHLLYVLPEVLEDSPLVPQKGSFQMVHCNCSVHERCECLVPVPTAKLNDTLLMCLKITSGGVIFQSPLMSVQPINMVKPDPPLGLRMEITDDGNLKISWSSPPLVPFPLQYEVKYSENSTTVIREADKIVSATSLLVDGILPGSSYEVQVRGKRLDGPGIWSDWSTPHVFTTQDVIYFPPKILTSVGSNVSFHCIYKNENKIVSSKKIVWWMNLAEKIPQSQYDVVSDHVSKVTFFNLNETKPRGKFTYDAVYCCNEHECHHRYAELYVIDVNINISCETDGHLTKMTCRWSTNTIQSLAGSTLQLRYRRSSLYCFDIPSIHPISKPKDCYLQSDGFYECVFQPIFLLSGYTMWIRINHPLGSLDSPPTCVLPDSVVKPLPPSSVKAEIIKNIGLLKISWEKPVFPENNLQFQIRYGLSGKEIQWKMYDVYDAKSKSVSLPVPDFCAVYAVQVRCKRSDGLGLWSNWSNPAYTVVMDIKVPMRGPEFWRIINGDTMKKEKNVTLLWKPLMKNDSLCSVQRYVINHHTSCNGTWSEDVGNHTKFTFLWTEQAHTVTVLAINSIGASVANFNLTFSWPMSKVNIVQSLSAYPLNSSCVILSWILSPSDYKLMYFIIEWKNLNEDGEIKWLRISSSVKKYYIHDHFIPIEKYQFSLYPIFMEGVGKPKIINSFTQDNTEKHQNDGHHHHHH
Method: as §1

binding result [1]: no binding (tested: 10 ug/ml)
Peak Width [2]: 2.7 min
B1: Antibody A (antibody, human IgG1, kappa, L234A L235A)
heavy: EVQLLESGGGLVQPGGSLRLSCAASGFTFSSFAMSWVRQAPGKGLEWVSAISGSGGSTYSADSVRGRFTISRDNSKNTLYLQMNSLRAEDTAVYYCAKDQGDWDFLFDYWGQGTLVTVSSASTKGPSVFPLAPSSKSTSGGTAALGCLVKDYFPEPVTVSWNSGALTSGVHTFPAVLQSSGLYSLSSVVTVPSSSLGTQTYICNVNHKPSNTKVDKRVEPKSCDKTHTCPPCPAPEAAGGPSVFLFPPKPKDTLYITREPEVTCVVVSVSHEDPEVKFNWYVDGVEVHNAKTKPREEQYNSTYRVVSVLTVLHQDWLNGKEYKCKVSNKALPAPIEKTISKAKGQPREPQVYTLPPSREEMTKNQVSLTCLVKGFYPSDIAVEWESNGQPENNYKTTPPVLDSDGSFFLYSKLTVDKSRWQQGNVFSCSVMHEALHNHYTQKSLSLSPGK
light: DIQMTQSPSFLSASVGDRVTITCRASQGISSSLAWYQQKPGKAPKLLIYTASTLQSGVPSRFSGSGSGTEFTLTISSLQPEDFATYYCQQLIYYPFTFGQGTKVEIKRTVAAPSVFIFPPSDEQLKSGTASVVCLLNNFYPREAKVQWKVDNALQSGNSQESVTEQDSKDSTYSLSSTLTLSKADYEKHKVYACEVTHQGLSSPVTKSFNRGEC
notes: IgG1 mAb

EC50 [3]: 1.11 nM
B2: Antibody B (antibody, human IgG1, kappa, L234A L235A, V domains shown)
VH: EVQLLESGGGLVQPGGSLRLSCAASGFTFSSFAMSWVRQAPGKGLEWVSAISGSGGSTYSADSVRGRFTISRDNSKNTLYLQMNSLRAEDTAVYYCAKDQGDWDFLFDYWGQGTLVTVSS
VL: DIQMTQSPSFLSASVGDRVTITCRVSQGISSSLAWYQQKPGKAPKLLIYTASTLQSGVPSRFSGSGSGTEFTLTISSLQPEDFATYYCQQLNYYPFTFGQGTKVEIKR

binding result (canine LEPR-ECD-His): binds
Kd (CYNO LEPR-ECD-His): 47 nM
B3: Antibody C (antibody, human IgG1, kappa, L234A L235A, V domains shown)
VH: B2 VH
VL: B2 VL with V25A, T97S
